Test results: patent US6436636B1, “Methods for identifying pharmacologicals for the treatment of heart failure” (Wake Forest University, priority 1995, dated 2002)

How the values were obtained:
Experiment in all cases: UV-crosslinking of recombinant p37AUF1 to radiolabeled RNA
Type in all cases: binding
Details in all cases: UV irradiation, Rnase A+T1 digestion, SDS-PAGE, autoradiography
[1] = system: human β1-AR 3′UTR RNA
Description: (§1) FIG. 5 represents an autoradiogram showing UV-crosslinking of purified, recombinant p37AUF1 polypeptide to human β1-AR 3′UTR RNA. Autoradiogram of recombinant p37AUF1 UV-crosslinked to radiolabeled, in vitro transcribed human β1-AR 3′UTR RNA. Lane 1, β1-AR RNA in the absence of competitor RNA. Lanes 2 and 3, β1-AR RNA is the presence of 10-fold and 100-fold molar excess of unlabeled β1-AR RNA. Lane 4, β1-AR RNA in the presence of 100-fold molar excess of rabbit β-globin RNA (Rb). Lane 5, c-fos ARE only. Lane 6, rabbit β-globin RNA only.
(§2) To show AUF1 binds to the human β1-AR 3′UTR, radiolabeled RNA was incubated with purified, recombinant p37AUF1, subjected to UV irradiation, Rnase A+T1 digestion, SDS-PAGE, and autoradiography. Recombinant p37AUF1 polypeptide binds to the β1-AR 3′UTR and to the c-fos ARE but fails to bind to rabbit β-globin (Rβ) RNA (FIG. 5).
A 919 bp cDNA fragment corresponding to the β1AR 3′ UTR was synthesized by PCR and subcloned into pcDNA3 (Invitrogen) utilizing the Xho I and Xba I restriction endonuclease sites. The resulting vector was linearized with Xba I, and in vitro transcription was performed as described in Port et al., J. Biol. Chem. 267:24103-24108 (1992). Briefly, radiolabeled RNA was synthesized using T7 DNA-directed RNA polymerase and [α-^32P]UTP (800 Ci/mmol, New England Nuclear) to produce uniformly labeled, 5′-capped RNA. […]

[2] = system: c-fos ARE
Description: as §1, §2
(§3) A 0.3M KC1 ribosomal salt wash (RSW) was produced from DDT1-MF2 cells using the method of Brewer and Ross, Methods in Enzyznology 181:202-209 (1990). UV-crosslinking was performed as described in Port et al., J. Biol. Chem. 267:24103-24108 (1992) Briefly, an aliquot of radiolabeled RNA (1-4×10^6 cpm) was added to a mixture containing 20 μl of RSW (˜5×10^6 cell equivalents/μl) from DDT1-MF2 cells, 5 μg of yeast tRNA, 4 mM dithiothreitol, 5 μg heparin, and 65 units of Rnasin™ in a total volume of 50 μl. […]

[3] = system: rabbit β-globin (Rβ) RNA
Description: as §1, §2, §3

binding to β1-AR 3′UTR [1]: binds
binding to c-fos ARE [2]: binds
binding to rabbit β-globin (Rβ) RNA [3]: fails to bind
B1: p37AUF1: purified, recombinant p37AUF1 polypeptide (His6 fusion expressed in E. coli), A+U-rich element RNA-binding factor (protein)
chain: MSEEQFGGDGAAAAATAAVGGSAGEQEGAMVAATQGAAAAAGSGAGTGGGTASGGTEGGSAESEGAKIDASKNEEDEGKMFIGGLSWDTTKKDLKDYFSKFGEVVDCTLKLDPITGRSRGFGFVLFKESESVDKVMDQKEHKLNGKVIDPKRAKAMKTKEPVKKIFVGGLSPDTPEEKIREYFGGFGEVESIELPMDNKTNKRRGFCFITFKEEEPVKKIMEKKYHNVGLSKCEIKVAMSKEQYQQQQQWGSRGGFAGRARGRGGDQQSGYGKVSRRGGHQNSYKPY
modifications: left off: small tags and cut ends
